In article PMC11024467:

Target: IL-2Rα (UniProt P01589)
Experiment: SPR; Biacore, IL-2 receptor proteins immobilised on a CM5 chip; wild-type IL-2 or variant 012 flowed over at stepwise concentrations for 120 s, then blank solution; 1:1 binding fit (steady state affinity for 001 on IL-2Rα)

Sequence of IL-2Rα (P01589 22-272): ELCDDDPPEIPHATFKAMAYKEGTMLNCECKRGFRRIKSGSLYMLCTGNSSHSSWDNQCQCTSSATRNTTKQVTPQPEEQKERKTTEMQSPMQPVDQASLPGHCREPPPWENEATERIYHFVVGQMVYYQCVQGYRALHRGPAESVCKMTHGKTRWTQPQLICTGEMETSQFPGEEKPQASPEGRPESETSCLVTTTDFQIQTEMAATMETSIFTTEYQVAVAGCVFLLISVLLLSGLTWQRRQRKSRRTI

**Q.** wild-type IL-2 (001) (ligand) was tested. Which Kd did it give?
**A.** 0.0475 µM
